According to article PMC2193355:

B1: soluble α-DG (receptor)
chain: HWPSEPSEAVRDWENQLEASMHSVLSDLHEALPTVVGIPDGTAVVGRSFRVTIPTDLIGSSGEVIKVSTAGKEVLPSWLHWDPQSHTLEGLPLDTDKGVHYISVSAAQLDANGSHIPQTSSVFSIEVYPEDHSEPQSVRAASPDLGEAAASACAAEEPVTVLTVILDADLTKMTPKQRIDLLHRMQSFSEVELHNMKLVPVVNNRLFDMSAFMAGPGNAKKVVENGALLSWKLGCSLNQNSVPDIRGVEAPAREGTMSAQLGYPVVGWHIANKKPPLPKRIRRQIHATPTPVTAIGPPTTAIQEPPSRIVPTPTSPAIAPPTETMAPPVRDPVPGKPTVTTRTRGAIIQTPTLGPIQPTRVSDAGTVVSGQIRATVTIPGYVEPTAVATPPTTTTKKPRVSTPKPATPSTDSSATTTRRPTKKPRTPRPVPRVTTKAPITRLETASPPTRIRTTTSGVPRGGEPNQRPELKNHIDRVDAWVGTYFEVKIPSDTFYDKEDTTTDKLKLTLKLREQQLVGEKSWVQFNSNSQLMYGLPDSSHVGKHEYFMHATDKGGLSAVDAFEIHVHKRPQGDKAPARFKAKFVGDPAPVVNDIHKKIALVKKLAFAFGDRNCSTVTLQNITRG

Experiments:
[1] = molecular target: purified α-dystroglycan (α-DG) (UniProt Q28685); assay: far-Western, overlay or dot blot
[2] = molecular target: high affinity virus binders; assay: competitive inhibition binding assay
[3] = molecular target: low affinity viral binders; assay: competitive inhibition binding assay

Molecule | logs higher affinity than WE c2.2 [1] [logs] | concentration of soluble α-DG for 33% blocking of virus binding to α-DG cells [2] [nM] | concentration of soluble α-DG needed to block virus binding to α-DG cells [3] [nM]
LCMV WE c54 (purified virus; viral glycoprotein GP1/GP2) (complex) | 3 |  | 
B1 |  | 1 to 4 | > 400
